Measured values published in the supplement of paper PMC11780869.

Test system: Bacillus subtilis
Assay: cleaved RNA product abundance (RNA/gDNA barcode ratio) relative to median wild-type variant (ratio to wild type); higher = more accumulation of the downstream cleavage product
Summary of the method: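 Reporter mRNAs (truncated aprE or tetM) carrying barcoded, mutagenized RNase Y cleavage-site windows were made from oligos with a 9% error rate and integrated into the B. subtilis chromosome. Cultures grew in LB at 37°C from OD600 0.0003 to 0.3. Cleaved RNA was gel-selected, reverse transcribed and barcode-sequenced alongside genomic DNA barcodes, with UMI collapsing. Cleaved product abundance is the RNA:gDNA barcode ratio per variant, scaled to the median wild-type variant.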

[1] = experiment (reporter, strain, medium): exp 2b: truncated aprE reporter, strain BJT200, cleavage site: cggR-gapA (positions -7 to +36 mutated)
[2] = experiment (reporter, strain, medium): exp 4a: truncated aprE reporter, strain BJT201 with 2% xylose (RNase J1 expressed), cleavage site: cggR-gapA (positions -7 to +36 mutated)
[3] = experiment (reporter, strain, medium): exp 8a: truncated aprE reporter, strain BJT201 with 2% xylose (RNase J1 expressed), cleavage site: glnRA (positions -5 to +31 mutated)
[4] = experiment (reporter, strain, medium): exp 6: tetM reporter, strain 168, cleavage site: cggR-gapA (positions -7 to +36 mutated)

| Sequence | cleaved RNA product abundance [1] | cleaved RNA product abundance [2] | other results |
| --- | --- | --- | --- |
| ACAGACGAAGGAGCCGCAAAGAAGTCATTAAGGGATGAAAAATCCCTCAATATAAATATCTCTCACTTATTTAAA | 0.173 | 0.2 | – |
| CGACATGTCCCGCTTCTTTCATTAATCCGATAGCAACTGCTTTGCTATATACATTTACCTTTTAAGAGGAGGAAT | – | – | cleaved RNA product abundance [3]: 0.492 |
| ACAGACGAAGGAGCCGCAAAGAAGTTATTAAGGGATGAATAATCCCTTCAATATAAATATCTCTCACTTATTTAA | – | 0.904 | – |
| CGACATGTCCCGCTTCTTTCATTAATCCGTTAGCAACTGTTTTTCAATATACATTTACCTTTTAAGAGGAGGAAT | – | – | cleaved RNA product abundance [3]: 0.551 |
| ACAGACGAAGGAGCCGCAAAGAAGTTATTAAGGGATGAATAATCCGTCGATATAAATATCTCTCACTTATTTAAA | 0.0608 | 0.106 | – |
| ACAGACGAAGGAGCCGCAAAGAAGATATTAAGGCATGAATAATCCCTCAATATAAATATCTCTCACTTATTTAAA | 0.088 | 0.17 | – |
| ACAGACGAAGGAGCCGCAAAGAAGTTATTAAGGGATGAATAATCCCTCAAAAGAAATATCTCTCACTTATTTAAA | – | 0.0815 | – |
| ACAGACGAAGGAGCCGCACAGAAGTTATTCAGGGATGAATAATCCCTCAATATAAATATCTCTCACTTATTTAAA | – | 1.28 | – |
| ACAGACGAAGGAGCCGCAAAGAAGTTATTAAGGGATGAATTATCCCTCAATATAAATACCTCTCACTTATTTAAA | 0.469 | – | – |
| ACAGACGAAGGAGCCGCAAAGAAGTTATTAAGGGAAGAATAATCCCTCAATATATATATCTCTCACTTATTTAAA | 0.393 | 0.563 | – |
| CGACATGTCCCGCTTCTTTCATTAATCCGTTAGCAATTGTTTTGCTATATACATTTACGTTTTAAGAGGAGGAAT | – | – | cleaved RNA product abundance [3]: 1.1 |
| ACAGACGAAGGAGCCGCAAAGAAGTTATGAAGGTATGAATAATCCCTCAATATAAATATCTCTCACTTATTTAAA | 0.113 | 0.0823 | – |
| CGACATGTCCCGCTTCTTTCATTAATCCCTTAGCAACTATTTTGCTATATACATTTACCTTTTAAGAGGAGGAAT | – | – | cleaved RNA product abundance [3]: 0.323 |
| ACAGACGAAGGAGCCGCAAAGAAGTTATAAAGGGATGAATAATCCCTCAATATTAATATCTCTCACTTATTTAAA | – | 0.105 | – |
| ACAGACGAAGGAGCCGCAAAGAATTTATTAAGGGATGAATAATCCCTCACTATAAATATCTCTCACTTATTTAAA | 0.193 | 0.283 | – |
| ACAGACGAAGGAGCCGCAAAAAAGATATTAAGGGATGAATAATCCCTCAATATAAATATCTCTCACTTATTTAAA | – | 0.913 | cleaved RNA product abundance [4]: 0.421 |
| CGACATGTCCCGCTTCTTTCATTAATCCGTTAGCAACTGTTTTGCTATACACATTTACTTTTTAAGAGGAGGAAT | – | – | cleaved RNA product abundance [3]: 0.146 |
| ACAGACGAAGGAGCCGCTAAGAAGTTATTAAGGCATGAATAATCCCTCAATATAAATATCTCTCACTTATTTAAA | 0.115 | – | – |
| CGACATGTCCCGCTTCTTTCATTAATCCGTTAGCAACTGTATTGCTAAATACATTTACCTTTTAAGAGGAGGAAT | – | – | cleaved RNA product abundance [3]: 0.438 |
| ACAGACGAAGGAGCCGCAAAGAGGTTATTAAGGGATGAATAATCACTCAATATAAATATCTCTCACTTATTTAAA | – | 0.102 | – |

| Sequence | cleaved RNA product abundance [1] | cleaved RNA product abundance [2] | other results |
| --- | --- | --- | --- |
| CGACATGTCCCGCTTCTTTCATTAATCCGTTAGCTACTGTTATGCTATATACATTTACCTTTTAAGAGGAGGAAT | – | – | cleaved RNA product abundance [3]: 0.786 |
| ACAGACGAAGGAGCCGCAAAGAAATTATTAAGGGATAAATAATCCCTCAATATAAATATCTCTCACTTATTTAAA | 0.818 | 0.761 | cleaved RNA product abundance [4]: 1.1 |
| CGACATGTCCCGCTTCTTTCATTAATCCGTTAACACCTGTTTTGCTATATACATTTACCTTTTAAGAGGAGGAAT | – | – | cleaved RNA product abundance [3]: 0.258 |
| ACAGACGAAGGAGCCGCAATGTAGTTATTAAGGGATGAATAATCCCTCAATATAAATATCTCTCACTTATTTAAA | – | 1.43 | – |
| CGACATGTCCCGCTTCTTTCATTAATCCGTTAGCAACTGTTTTGATATATACATATACCTTTTAAGAGGAGGAAT | – | – | cleaved RNA product abundance [3]: 0.572 |
| ACAGACGAAGGAGCCGCAAAGAACTTATTAAGGGATGAATAATCCCTGAATATAAATATCTCTCACTTATTTAAA | 0.264 | 0.213 | – |
| ACAGACGAAGGAGCCGCAAAGAAGTGATTAAGGGATGAATAATCCCTCAATATAAAAATCTCTCACTTATTTAAA | – | 0.728 | – |
| CGACATGTCCCGCTTCTTTCATTAATCCGTTACCAACTGTTTTGCTATATACATTTTCCTTTTAAGAGGAGGAAT | – | – | cleaved RNA product abundance [3]: 0.231 |
| ACAGACGAAGGAGCCGCAAAGAAGTTATTAAGGGATGAATAATGCCCCAATATAAATATCTCTCACTTATTTAAA | – | 0.134 | – |
| ACAGACGAAGGAGCCGCAAAGAAGTTATTAAGGGATGAGTAATTCCTCAATATAAATATCTCTCACTTATTTAAA | – | 0.452 | – |
| ACAGACGAAGGAGCCGCAAAGAAGTTATTAAGAGACGAATAATCCCTCAATATAAATATCTCTCACTTATTTAAA | 0.0781 | 0.0728 | – |
| ACAGACGAAGGAGCCGCAAAGAAGGTATTAAGGTATGAATAATCCCTCAATATAAATATCTCTCACTTATTTAAA | – | 0.23 | – |
| ACAGACGAAGGAGCCGCAAAGAAGTTCTTAAGGGATGAATATTCCCTCAATATAAATATCTCTCACTTATTTAAA | – | 0.245 | – |
| ACAGACGAAGGAGCCGCAAAGAAGTTATTATTGGATGAATAATCCCTCAATATAAATATCTCTCACTTATTTAAA | – | 0.149 | – |
| ACAGACGAAGGAGCCGCAAAGAACTTATTAAGGGATGAATAAACCCTCAATATAAATATCTCTCACTTATTTAAA | 0.224 | 0.265 | – |
| ACAGACGAAGGAGCCGCAAAGAAGTTATTAAGGGATGAAAAATCCCTCAATATAGATATCTCTCACTTATTTAAA | 0.277 | – | – |
| ACAGACGAAGGAGCCGCAAAGAAGTTATTAAGGGATGAACAATCCCTCAATATTAATATCTCTCACTTATTTAAA | – | 0.189 | – |
| ACAGACGAAGGAGCCGCAAAGAAGTTATTAAGGGATGAACAATCCCTCGATATAAATATCTCTCACTTATTTAAA | – | 0.554 | – |
| ACAGACGAAGGAGCCGCAAAGAAGTTATTAAGGGATGAATAATCCCTCAATATAAATTATCTCTCACTTATTTAA | – | 0.975 | – |
| ACAGACGAAGGAGCCGCAAAGAAGTTATTAAGGGATCAATAATCCCTCAATATAGATATCTCTCACTTATTTAAA | 0.534 | – | – |

| Sequence | cleaved RNA product abundance [1] | cleaved RNA product abundance [2] | other results |
| --- | --- | --- | --- |
| ACAGACGAAGGAGCCGCAAAGAAGATACTAAGGGATGAATAATCCCTCAATATAAATATCTCTCACTTATTTAAA | 0.0772 | – | – |
| ACAGACGAAGGAGCCGCAAAGAAGTTATTAAGGGATCAATAATCCCTCAATATAAATATCTCTCACTTATTTAAA | 0.832 | 0.878 | cleaved RNA product abundance [4]: 0.996 |
| ACAGACGAAGGAGCCGCAAACAAGTTATTAAGGTATGAATAATCCCTCAATATAAATATCTCTCACTTATTTAAA | 0.102 | 0.0749 | – |
| ACAGACGAAGGAGCCGCAAAGAAGTTATTAAGGCAAGAATAATCCCTCAATATAAATATCTCTCACTTATTTAAA | 0.104 | 0.115 | – |
| CGACATGTCCCGCTTCTTTCATTAATCCTTTAGCCACTGTTTTGCTATATACATTTACCTTTTAAGAGGAGGAAT | – | – | cleaved RNA product abundance [3]: 0.253 |
| CGACATGTCCCGCTTCTTTCATTAATCCGTTAGCAACTGTTTTGCTATATAAATCTACCTTTTAAGAGGAGGAAT | – | – | cleaved RNA product abundance [3]: 1.49 |
| CGACATGTCCCGCTTCTTTCATTAATCCGTTAGCAACTGTTTTGCTATATACAGTTACCTTTTAAGAGGAGGAAT | – | – | cleaved RNA product abundance [3]: 0.464 |
| ACAGACGAAGGAGCCGCAAAGAAGTTATTAATGGACGAATAATCCCTCAATATAAATATCTCTCACTTATTTAAA | 0.0737 | 0.0953 | – |
| ACAGACGAAGGAGCCGCAAAGAAGTGATTAAGGGATGAATAATCCCTCAAAATAAATATCTCTCACTTATTTAAA | – | 0.258 | – |
| ACAGACGAAGGAGCCGCAAAGAAGTTATTAAGGGATGCATAATCTCTCAATATAAATATCTCTCACTTATTTAAA | – | 0.725 | – |
| ACAGACGAAGGAGCCGCAAAGAAGTTATTACGGTATGAATAATCCCTCAATATAAATATCTCTCACTTATTTAAA | – | 0.141 | – |
| CGACATGTCCCGCTTCTTTCATTAATCCGTTAGCAACTGTTTTGCTCTATACATATACCTTTTAAGAGGAGGAAT | – | – | cleaved RNA product abundance [3]: 0.176 |
| ACAGACGAAGGAGCCGCAAAGACGTTATTAAGGTATGAATAATCCCTCAATATAAATATCTCTCACTTATTTAAA | 0.0832 | 0.153 | – |
| CGACATGTCCCGCTTCTTTCATTAATCCGTTAGCAACTGTTTCGCTATACACATTTACCTTTTAAGAGGAGGAAT | – | – | cleaved RNA product abundance [3]: 0.222 |
| ACAGACGAAGGAGCCGCAAAGAAGTTATAAAGGGATGAATAATCCCTCAATATAATTATCTCTCACTTATTTAAA | – | 0.171 | – |
| CGACATGTCCCGCTTCTTTCATTAATCCGTTAGCAACTGTATTGCAATATACATTTACCTTTTAAGAGGAGGAAT | – | – | cleaved RNA product abundance [3]: 0.678 |
| ACAGACGAAGGAGCCGCAAAGAAGTTATTAAGGGACGAATAATTCCTCAATATAAATATCTCTCACTTATTTAAA | 0.126 | 0.192 | – |
| ACAGACGAAGGAGCCGCAATGAACTTATTAAGGGATGAATAATCCCTCAATATAAATATCTCTCACTTATTTAAA | – | 0.405 | – |
| ACAGACGAAGGAGCCGCAAAGAAATTATTAAGGGATGAATAATCCCTCGATATAAATATCTCTCACTTATTTAAA | – | 0.395 | – |
| CGACATGTCCCGCTTCTTTCATTAATCCATTAGCAGCTGTTTTGCTATATACATTTACCTTTTAAGAGGAGGAAT | – | – | cleaved RNA product abundance [3]: 0.324 |
